Several values for one entry are separate records, joined by “and”; a condition that tells them apart may be missing. Equal entries are not always repeated. Where two headings read alike, the source gives them in different places.

Assay [1] deals with SARS-CoV-2 RBD protein Avi-tag biotinylated (AcroBiosystems SPD-C82E9) (SARS-CoV-2, UniProt P0DTC2 330-518). Nature of the assay: competition AlphaLISA; competitor human ACE2-mFc.
Assay [2] addresses T1, BSA (Bos taurus, UniProt P02769).
T1 construct: coated on the ELISA plate; also called negative control antigen
The assay can be described thus: ELISA on coated BSA, anti-VHH-HRP, OD450 [upper graph].

Assay [3] concerns the target T2, Mouse IgG1 Fc fused SARS-CoV-2 RBD (Sino Biological) (SARS-CoV-2; mouse, UniProt P0DTC2 330-518). The assay can be described thus: ELISA on coated SARS-CoV-2 RBD-muFc, anti-VHH-HRP, OD450 [upper graph].
Assay [4] has as its target T1, BSA. Nature of the assay: ELISA on coated BSA, anti-VHH-HRP, OD450 [lower graph].
Assay [5] concerns the target T2, Mouse IgG1 Fc fused SARS-CoV-2 RBD …. The assay can be described thus: ELISA on coated SARS-CoV-2 RBD-muFc, anti-VHH-HRP, OD450 [lower graph].
In assay [6] the target is SARS-CoV-2 spike, full length, on cells or on pseudotyped/authentic virus (SARS-CoV-2, UniProt P0DTC2 14-1273). Nature of the assay: cell-based or functional assay.
Assay [7] addresses T2, Mouse IgG1 Fc fused SARS-CoV-2 RBD …. The assay can be described thus: BLI, RBD-mFc on AMC tips, global 1:1 fit.
Assay [8] shares this target.
Assay [9] concerns the target T3, WT SARS-CoV-2 RBD displayed on Saccharomyces cerevisiae (SARS-CoV-2, UniProt P0DTC2 331-518).
Assay [10] deals with T3, WT SARS-CoV-2 RBD displayed on …. The assay can be described thus: flow cytometry, yeast cells displaying WT RBD.

T1 sequence (P02769 25-607 limits assumed): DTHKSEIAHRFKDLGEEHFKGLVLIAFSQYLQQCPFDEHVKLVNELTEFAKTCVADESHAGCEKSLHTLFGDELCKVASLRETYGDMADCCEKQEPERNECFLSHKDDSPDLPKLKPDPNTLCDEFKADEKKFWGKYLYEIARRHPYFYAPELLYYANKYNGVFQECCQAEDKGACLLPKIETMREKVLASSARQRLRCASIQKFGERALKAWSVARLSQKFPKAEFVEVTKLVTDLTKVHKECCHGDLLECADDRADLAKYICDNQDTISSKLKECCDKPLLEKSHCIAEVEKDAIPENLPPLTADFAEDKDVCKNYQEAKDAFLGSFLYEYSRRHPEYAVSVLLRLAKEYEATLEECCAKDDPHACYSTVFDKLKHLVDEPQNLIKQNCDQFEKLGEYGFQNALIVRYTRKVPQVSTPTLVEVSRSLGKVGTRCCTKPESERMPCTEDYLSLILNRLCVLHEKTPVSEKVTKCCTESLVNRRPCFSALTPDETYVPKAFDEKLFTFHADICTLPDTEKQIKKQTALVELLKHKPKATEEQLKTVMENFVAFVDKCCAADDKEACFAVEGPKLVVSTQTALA

B1: VHH3.36 (VHH)
VHH: QVQLQESGGGLVQAGDSLRLSCVVSGGTFSSYAMGWFRQAPGKERELVAAINWGGISVYYADSVKGRFTISRDNAENTVYLQMNSLKPEDTAVYYCAADPKGWSEWDMEYWGKGTQVTVSS
With B1, in [1], the “% inhibition” value came to 100% and the IC50 was found to be 0.562 nM. Also, in the assay with BSA [2], the binding result is given as “no binding (tested: about 20 µg/ml)”. Also, in assay [3], the “EC50 (read off the curve)” value is ~0.05 µg/mL.

B2: VHH3.115 (VHH)
VHH: QVQLQESGGGLVQTGGSLRLSCAASGLTFSDIAMGWFRQAPGREREFVATISWSGGGTYYAEPVRGRFAISRDNAKNTVYLQMNSLKPEDTAVYYCAAAGAGTVVSEWDYDYDYWGQGTQVTVSS
B2: in assay [1], the “% inhibition” value was found to be 100% and the IC50 is 1.08 nM. Further, the binding result with BSA [4] is “no binding (tested: about 20 µg/ml)”. Also, the “EC50 (read off the curve)” value in assay [5] is ~0.006 µg/mL.

B3: D72-13: VHH72-h1_(G4S)3-VHH72-h1_GS_hIgG1hinge-hIgG1Fc (Fc fusion)
chain: EVQLVESGGGLVQPGGSLRLSCAASGRTFSEYAMGWFRQAPGKEREFVATISWSGGSTYYTDSVKGRFTISRDNAKNTVYLQMNSLRPEDTAVYYCAAAGLGTVVSEWDYDYDYWGQGTLVTVSSGGGGSGGGGSGGGGSEVQLVESGGGLVQPGGSLRLSCAASGRTFSEYAMGWFRQAPGKEREFVATISWSGGSTYYTDSVKGRFTISRDNAKNTVYLQMNSLRPEDTAVYYCAAAGLGTVVSEWDYDYDYWGQGTLVTVSSGS
notes: ExpiCHO; tetravalent
As to B3, the “PRNT50, authentic SARS-CoV-2” value in [6] is 0.1 µg/mL. Also, in assay [7], the Kd was < 0.001 nM, the off-rate (koff) was < 1e-07 s⁻¹ and the kon was 2.65e+06 M⁻¹ s⁻¹.

B4: VHH3.35 (VHH)
VHH: QVQLQESGGGLVQAGGSLTLSCEVSGRTNDNYGVGWFRQVPGAERELVAAIRWSSISRYYKDSVKGRFTISRDNAKNTVYLQMDMLKAEDTAVYYCAADPAGWSEFGMEYWGKGTQVTVSS
As to B4, in assay [1], the “% inhibition” value was determined as 100% and the half-inhibitory concentration (IC50) came to 1.06 nM. Also, in the assay with BSA [2], the binding result was “no binding (tested: about 20 µg/ml)”. In addition, the concentration for a half-maximal effect (EC50 (read off the curve)) in assay [3] was ~0.04 µg/mL.

B5: VHH3.77 (VHH)
VHH: QVQLQESGGGLVQAGGSLRLSCVSSGRAFGNGAVGWFRQGPGRPREFVATVSWNGGGTYFAESVRGRFTISRDNAKNTVYLQMNNLKPEDTAVYYCALAGEGTVVSEWDYDYEYWGQGTQVTVSS
With B5, in assay [1], the “% inhibition” value was found to be 97% and the IC50 is 0.723 nM. The binding result with BSA [4] was “no binding (tested: about 20 µg/ml)”. The concentration for a half-maximal effect (EC50 (read off the curve)) in assay [5] is ~0.03 µg/mL.

B6: VHH3BE4 (VHH)
VHH: QVQLQESGGGLVQAGGSLRLSCVASGRAFGNGAVGWFRQAPGREREFVATVSWNGGGTYYAESVRGRFTISRDNAKSTVYLQMNSLKPEDTAVYYCASAGEGTVVSEWDYDYDYWGQGTQVTVSS
On to B6, for which, in assay [1], the “% inhibition” value is 100% and the IC50 came out at 0.634 nM.

B7: VHH3.17 (VHH)
VHH: QVQLQESGGGLVEAGGSLTLSCAASGRAFGDGAVGWFRQGPGRPREFVATVSWNGGGTYFAESVRGRFTISRDNAKNTVYLQMNNLKPEDTAVYYCALAGEGTVVSEWDYDYEYWGQGTQVTVSS
Take B7: in [1], the “% inhibition” value is 99% and the IC50 is 1.03 nM. Also, the binding result with BSA [2] was “no binding (tested: about 20 µg/ml)”. In addition, the “EC50 (read off the curve)” value in assay [3] was ~0.05 µg/mL.

B8: VHH3.144 (VHH)
VHH: QVQLQESGGGLVQAGGSLRLSCVASGRAFGNGAVGWFRQAPGREREFVATVSWNGGGTYYAESVRGRFTISRDNAKSTVYLQMNSLKPEDTAVYYCASAGEGTVVSEWDYDYDYWGQGTQVTVSS
With B8, in assay [1], the “% inhibition” value came out at 100% and the IC50 is 1.12 nM. For the same molecule, the binding result in the assay with BSA [4] is given as “no binding (tested: about 20 µg/ml)”.

B9: VHH3.149 (VHH)
VHH: QVQLQESGGGLVQAGGSLKLSCAASGRTFSSYALGWFRQAPGTEREFVSAINWFGAPTYYADSVKGRFTISRDNAKNTVYLQMDNLKPEDTAVYYCAADSKGWDPQDMDYWGKGTQVTVSS
Regarding B9, in [1], the “% inhibition” value is 98% and the 50% inhibitory concentration (IC50) was 0.902 nM. The binding result in the assay with BSA [4] is “no binding (tested: about 20 µg/ml)”. Moreover, the concentration giving a half-maximal response (EC50 (read off the curve)) in assay [5] was ~0.006 µg/mL.

B10: VHH3.47 (VHH)
VHH: QVQLQESGGGLVQAGDSLRLSCAASGHNFSTYAMAWFRQAPGTERELVAAISENDVMRYYADSVKGRFTISRDNAKNMAYLQMNSLKVEDTAVYLCAADPKGWSEWDMDYWGKGTQVTVSS
B10: in assay [1], the “% inhibition” value was determined as 100% and the IC50 was 0.729 nM. Besides, the concentration giving a half-maximal response (EC50 (read off the curve)) in assay [5] was ~0.03 µg/mL.

B11: VHH72 - hIgG1.Hinge-hIgG1.Fc (Fc fusion)
VHH-Fc chain: QVQLQESGGGLVQAGGSLRLSCAASGRTFSEYAMGWFRQAPGKEREFVATISWSGGSTYYTDSVKGRFTISRDNAKNTVYLQMNSLKPDDTAVYYCAAAGLGTVVSEWDYDYDYWGQGTQVTVSS
In the case of B11, in [8], the Kd is 0.0874 nM and 0.0895 nM; the off-rate constant (koff) is 0.000252 s⁻¹ and 0.000288 s⁻¹; the kon was 2.88e+06 M⁻¹ s⁻¹ and 3.22e+06 M⁻¹ s⁻¹.

B12: VHH72_h1(S56A) (VHH)
VHH: EVQLVESGGGLVQPGGSLRLSCAASGRTFSEYAMGWFRQAPGKEREFVATISWSGGATYYTDSVKGRFTISRDNAKNTVYLQMNSLRPEDTAVYYCAAAGLGTVVSEWDYDYDYWGQGTLVTVSS
On to B12, for which, in the assay with BSA [2], the binding result was “no binding (tested: about 20 µg/ml)”.

B13: parental VHH72-hIgG1 Fc (P. pastoris supernatant) (Fc fusion)
chain: QVQLQESGGGLVQAGGSLRLSCAASGRTFSEYAMGWFRQAPGKEREFVATISWSGGSTYYTDSVKGRFTISRDNAKNTVYLQMNSLKPDDTAVYYCAAAGLGTVVSEWDYDYDYWGQGTQVTVSS
As for B13, in [8], the dissociation constant Kd is 0.0786 nM and 0.0765 nM; the koff is 0.000261 s⁻¹ and 0.000283 s⁻¹; the on-rate constant (kon) is 3.33e+06 M⁻¹ s⁻¹ and 3.7e+06 M⁻¹ s⁻¹.

B14: VHH2.50 (VHH)
VHH: QVQLQESGGGLVQAGGSLRLSCAASGRTFSSIAMGWFRQAPGKEREFVATISWSGGSTYYADSVKGRFTISRDNAKNTVYLQMNSLKPEDTAVYYCAAAGLGTVVSEWDYDYDYWGQGTQVTVSS
On to B14, for which, in [1], the “% inhibition” value turned out to be 79% and the half-maximal inhibitory concentration (IC50) is 34.2 nM.

B15: VHH3.29 (VHH)
VHH: QVQLQESGGGLVQAGGSLRLSCVASGRTFSSGGMGWFRQAPGQEREFVAGIGWAGLSSYYLDSVKGRFTISLDNAKNTVYLQMNMLKPEDTGVYYCAADDHGWSAAGMDYLGQGTQVTVSS
As to B15, in assay [1], the “% inhibition” value amounted to 97% and the IC50 is 1 nM. Moreover, the binding result with BSA [2] was “no binding (tested: about 20 µg/ml)”. For the same molecule, the 50% effective concentration (EC50 (read off the curve)) in assay [3] was ~0.03 µg/mL.

B16: VHH3.83 (VHH)
VHH: QVQLQESGGGLVQPGDSLRLSCVLSGGVFTSYAMGWFRQAPGKEREFLAAITFNSDATYYADSVKGRFTISRDNAKNTAYLQMNSLKPNDTAVYSCAAGGNHYNPQYYHDYDKYDHWGQGTQVTVSS
Take B16: the “EC50 (read off the curve)” value in [9] is ~0.003 µg/mL. Also, in assay [10], the “concentration at which binding was just below saturation” value was determined as 10 ng/mL. Besides, in assay [1], the “% inhibition” value is 74% and the IC50 turned out to be 0.46 nM.

Values taken from patent US20230227537A1 (VIB VZW, published 2023).
